# Laboratory results from publication PMC9082315 (2022).
# Molecular target: monomeric SARS-CoV-2 RBD (S residues 332-534) with Flag peptide and 8xHis-tag (SARS-CoV-2 (WA1 strain), UniProt P0DTC2 332-534)
# Assay: SPR
row,Binder,Kd
1,hcAb 1.26 (Nb 1.26 fused to the human IgG1 hinge and Fc) (Fc fusion) QVQLVESGGGLVQAGGSLRLSCAATGYTWSSVCMGWFRQAPGKEREGVAGIPSGRNRPYYADSVKGRFTISQDNAKNAVFLLMNSLKPEDTAIYYCAPCSAPHDPEYNYWGQGTQVTVSS,0.08 nM
2,"Nb 2.11, monomeric nanobody (VHH) VHH: QVQLVESGGGSVQAGGSLRLSCAASGDASNRKCVSWFRRAPGKEREGVALIFPVGSSTAYADSVKGRFTISQDSAKDTVYLQMNNLKPEDSGTYYCAAVSWGGRCNLETQTVTFWGQGTQVTVSS",2.17 nM
3,hcAb 2.11 (Nb 2.11 fused to the human IgG1 hinge and Fc) (Fc fusion) QVQLVESGGGSVQAGGSLRLSCAASGDASNRKCVSWFRRAPGKEREGVALIFPVGSSTAYADSVKGRFTISQDSAKDTVYLQMNNLKPEDSGTYYCAAVSWGGRCNLETQTVTFWGQGTQVTVSS,0.16 nM
4,hcAb 1.29 (Nb 1.29 fused to the human IgG1 hinge and Fc) (Fc fusion) QVQLVESGGGSVQAGGSLRLSCAASGYTINTDAVAWFRQAPGKGDERVAVIYTGSGNTNYADSVKGRFTISQDNAKNTVYLQMNSLKPEDTALYYCASGYYGASGYDFNNWGQGTQVTVSS,0.63 nM
5,hcAb 2.1 (Nb 2.1 fused to the human IgG1 hinge and Fc) (Fc fusion) QVQLVESGGGSVQAGGSLRLSCAAFGATISSAHMGWFRQAPGKEREGVAFRYTDGSSTYYTTSVRGRFTISQDNAKNTVYLQMNSLKPEDTAMYYCASNPSWGRLVGGQYNNWGQGTQITVSS,0.36 nM
6,"Nb 2.1, monomeric nanobody (VHH) VHH: QVQLVESGGGSVQAGGSLRLSCAAFGATISSAHMGWFRQAPGKEREGVAFRYTDGSSTYYTTSVRGRFTISQDNAKNTVYLQMNSLKPEDTAMYYCASNPSWGRLVGGQYNNWGQGTQITVSS",1.74 nM
7,hcAb 2.15 (Nb 2.15 fused to the human IgG1 hinge and Fc) (Fc fusion) QVQLVESGGGSVQAGGSLKLSCAASGYASWARKCIGWFRQAPGQEREGVAAIFDFDGSTYYSDSVKGRFTISGDNAKNTVSLQMNSLLPKDTAVYYCTVAFGTCDNWYRGRGDYWGQGTQVTVSS,0.08 nM
8,"Nb 2.15, monomeric nanobody (VHH) VHH: QVQLVESGGGSVQAGGSLKLSCAASGYASWARKCIGWFRQAPGQEREGVAAIFDFDGSTYYSDSVKGRFTISGDNAKNTVSLQMNSLLPKDTAVYYCTVAFGTCDNWYRGRGDYWGQGTQVTVSS",0.39 nM
9,hcAb 2.20 (Nb 2.20 fused to the human IgG1 hinge and Fc) (Fc fusion) QVQLVESGGGSVQAGGSLRLSCAASGYTYNNYYMGWFRQAPGKEREGVAAINSDGLDTYVADSVKGRFTISRDNAKDTVHLQMNSLKPEDTAIYSCATGRTVYYSGYDFRLSVDDYWGQGTQVTVSS,0.21 nM
10,"Nb 1.16, monomeric nanobody (VHH) VHH: QVQLVESGGGSVQAGGSLRLSCAASGNTSKRKCVGWFRRAPGKEREGVTLIYTVGGSTVYADSVKGRFTISQDNAKDTVYLQMNSLKPEDSAMYYCAAESWGRQCNLETHRFTFWGQGTQVTVSS",3.59 nM
11,hcAb 1.16 (Nb 1.16 fused to the human IgG1 hinge and Fc) (Fc fusion) QVQLVESGGGSVQAGGSLRLSCAASGNTSKRKCVGWFRRAPGKEREGVTLIYTVGGSTVYADSVKGRFTISQDNAKDTVYLQMNSLKPEDSAMYYCAAESWGRQCNLETHRFTFWGQGTQVTVSS,0.25 nM
12,hcAb 1.10 (Nb 1.10 fused to the human IgG1 hinge and Fc) (Fc fusion) QVQLVESGGGSVQAGGSLRLSCAASGYTYSTCRKGWYRQAPGKERELVASITADGATYYLDSVKGRLTISQDNAKNTVYLQMNSLKPEDTAVYYCAASVKDFTCTFNSWGQGTQVTVSS,0.77 nM
